Data as given in patent publication US20050142634A1, “Novel modulator of non-genomic activity of nuclear receptors (mnar) and uses thereof” (Wyeth, priority 2001, published 2005).

B1: mutant 10: MNAR mutant aa 595-962 (protein, listed as Homo sapiens)
chain: PPPLACALQAFSLGQREDSLEVSSFCSEALVTCAALTHPRVPPLQPMGPTCPTPAPVPPPEAPSPFRAPPFHPPGPMPSVGSMPSAGPMPSAGPMPSAGPVPSARPGPPTTANHLGLSVPGLVSVPPRLLPGPENHRAGSNEDPILAPSGTPPPTIPPDETFGGRVPRPAFVHYDKEEASDVEISLESDSDDSVVIVPEGLPPLPPPPPSGATPPPIAPTGPPTASPPVPAKEEPEELPAAPGPLPPPPPPPPPVPGPVTLPPPQLVPEGTPGGGGPPALEEDLTVININSSDEEEEEEEEGEEEEEEEEEEEEDFEEEEEDEEEYFEEEEEEEEEFEEEFEEEEGELEEEEEEEDEEEEEELEEVED
B2: mutant 11: MNAR mutant aa 595-887 (protein, listed as Homo sapiens)
chain: PPPLACALQAFSLGQREDSLEVSSFCSEALVTCAALTHPRVPPLQPMGPTCPTPAPVPPPEAPSPFRAPPFHPPGPMPSVGSMPSAGPMPSAGPMPSAGPVPSARPGPPTTANHLGLSVPGLVSVPPRLLPGPENHRAGSNEDPILAPSGTPPPTIPPDETFGGRVPRPAFVHYDKEEASDVEISLESDSDDSVVIVPEGLPPLPPPPPSGATPPPIAPTGPPTASPPVPAKEEPEELPAAPGPLPPPPPPPPPVPGPVTLPPPQLVPEGTPGGGGPPALEEDLTVININSSD
B3: mutant 9: MNAR mutant, C-terminal portion aa 595-1131 (protein, listed as Homo sapiens)
chain: PPPLACALQAFSLGQREDSLEVSSFCSEALVTCAALTHPRVPPLQPMGPTCPTPAPVPPPEAPSPFRAPPFHPPGPMPSVGSMPSAGPMPSAGPMPSAGPVPSARPGPPTTANHLGLSVPGLVSVPPRLLPGPENHRAGSNEDPILAPSGTPPPTIPPDETFGGRVPRPAFVHYDKEEASDVEISLESDSDDSVVIVPEGLPPLPPPPPSGATPPPIAPTGPPTASPPVPAKEEPEELPAAPGPLPPPPPPPPPVPGPVTLPPPQLVPEGTPGGGGPPALEEDLTVININSSDEEEEEEEEGEEEEEEEEEEEEDFEEEEEDEEEYFEEEEEEEEEFEEEFEEEEGELEEEEEEEDEEEEEELEEVEDLEFGTAGGEVEEGAPPPPTLPPALPPPESPPKVQPEPEPEPGLLLEVEEPGTEEERGADTAPTLAPEALPSQGEVEREGESPAAGPPPQELVEEEPSAPPTLLEEEPEDGSDKVQPPPETPAEEEMETETEAEALQEKEQDDTAAMLADFIDCPPDDEKPPPPSEPDS

These molecules were tested on ER (assay: MNAR structural-functional analysis, ER-stimulated transcription in HepG2 cells). Conditions: MNAR deletion mutants transfected into HepG2 cells.
Assay type: cell-based
Procedure: To delineate the regions of MNAR that are responsible for interaction with estrogen receptor and c-Src tyrosine kinase, we performed functional evaluation of MNAR deletion mutants (FIG. 12). A series of C-terminal truncations of MNAR was generated using specially designed oligonucleotides, by amplifying appropriate fragments and cloning them into appropriate expression vectors. These mutants were tested for their abilities to enhance ER-stimulated transcription when transfected into HepG2 cells.
At the C-terminus, MNAR contains a region rich in both proline and glutamic acid. To delineate the regions on MNAR responsible for interaction with estrogen receptors and c-src tyrosine kinase, a functional evaluation of MNAR deletion mutants was performed (FIG. 12). A series of C-terminal truncations of MNAR was generated using specially designed oligonucleotides, by amplifying appropriate fragments and cloning them into appropriate expression vectors. These mutants were tested for their abilities to enhance ER-stimulated transcription when transfected into HepG2 cells.

Row | Molecule | ability to enhance ER-stimulated transcription
1 | B1 | inactive
2 | B2 | inactive
3 | B3 | inactive
